Reference: the RNAGym collection of RNA variant scans (doi:10.7554/elife.90254)

B1: LINE1-full (parent)
chain: UACGUAGGUGGUUUUCCCCUGAUAGUGCUAAGGGGGCCUGGAAGUUUGGACUGGGCAGAGCUCAACACAGCGUGGCAAAGUGGCUGUGGCUAGACUGCCUCUCUGGAUUCCUCGUCACUCAGCAGGGCAUCUCUGAGAGAAAUGCC

Variants of: B1
Assay: self-cleavage, relative activity (ratio to wild type); higher = more cleavage; in vitro, sequencing; the parent is a self-cleaving ribozyme

Variant	self-cleavage
UACGUAGGUGGUUUUCCCCUGAUAGUGCUAAGGGGGCCUGGAAGUUUGGACUGGGCAGAGCUCAACACAGCGGGGCAAAGUGGCUGUGGCCAGACUGCCUCUCUGGAUUCCUCGUCACUCAGCAGGGCAUCUCUGAGAGAAAUGCC	0.29
UACGUAGGUGGUUUUCCCCUGAUAGUGCUAAGGGGGCCUGGAAGUUUGGACUGGGCAGAGCUCAACACAGCGCGGCAAAGUGGCUGUGGCUAGACUGCCUCUCUGGAUUCCUCGACACUCAGCAGGGCAUCUCUGAGAGAAAUGCC	1.58
UACGUAGGUGGUUUUCCCCUGAUAGUGCUAAGGGGGCCUGGAAGUUUGGACUGGGCAGAGCUCAACACAGCGCGGCAAAGUGGCUGUGGCUAGACUGCCUCUCUGGAUUCCUCGUCACUCAGCAGGGCAACUCUGAGAGAAAUGCC	1.2
UACGUAGGUGGUUUUCCCCUGAUAGUGCUAAGGGGGCCUGGAAGUUUGGACUGGGCAGAGCUCAACACAGCGCGGCAAAGUGGCUGUGGCUAGACUGCCUCUCUGGAUUCCUCGUCACUCAGCAGGGCACCUCUGAGAGAAAUGCC	1.81
UACGUAGGUGGUUUUCCCCUGAUAGUGCUAAGGGGGCCUGGAAGUUUGGACUGGGCAGAGCUCAACACAGCGGGGCAAAGUGGCUGUGGCUAGACUGCCUCUCUGGAUUCCUCGUCACUCGGCAGGGCAUCUCUGAGAGAAAUGCC	2.45
UACGUAGGUGGUUUUCCCCUGAUAGUGCUAAGGGGGCCUGGAAGUUUGGACUGGGCAGAGCUCAACACAGCGCGGCAAAGUGGCUGUGGCUAGACUGCCUCUCUGGAUUCCUCGUCACUCAGCAGGGCAUCUCUGAGAGAAAAGCC	1.63
UACGUAGGUGGUUUUCCCCUGAUAGUGCUAAGGGGGCCUGGAAGUUUGGACUGGGCAGAGCUCAACACAGCGCGGCAAAGUGGCUGUGGCUAGACUGCCUCUCUGGAUUCCUCGUCACUCAGCAGGGCAUCUCUGAGAGAAACGCC	2.13
UACGUAGGUGGUUUUCCCCUGAUAGUGCUAAGGGGGCCUGGAAGUUUGGACUGGGCAGAGCUCAACACAGCGUAGCAAAGUGGCUGUGGCUAGACUGCCUCUCUGGAUUCCUCGUCCCUCAGCAGGGCAUCUCUGAGAGAAAUGCC	1.63
UACGUAGGUGGUUUUCCCCUGAUAGUGCUAAGGGGGCCUGGAAGUUUGGACUGGGCAGAGCUCAACACAGCGUAGCAAAGUGGCUGUGGCUUGACUGCCUCUCUGGAUUCCUCGUCACUCAGCAGGGCAUCUCUGAGAGAAAUGCC	0.1
UACGUAGGUGGUUUUCCCCUGAUAGUGCUAAGGGGGCCUGGAAGUUUGGACUGGGCAGAGCUCAACACAGCGGGGCAAAGUGGCUGUGGCUAGACUGCCUCUCUGGAUUCCUCGCCACUCAGCAGGGCAUCUCUGAGAGAAAUGCC	2.26
UACGUAGGUGGUUUUCCCCUGAUAGUGCUAAGGGGGCCUGGAAGUUUGGACUGGGCAGAGCUCAACACAGCGGGGCAAAGUGGCUGUGGCUAGACUGCCUCUCUGGAUUCCUCGUCACUCAGCAGGGCAUCUCAGAGAGAAAUGCC	0.88
UACGUAGGUGGUUUUCCCCUGAUAGUGCUAAGGGGGCCUGGAAGUUUGGACUGGGCAGAGCUCAACACAGCGGGGCAAAGUGGCUGUGGCUAGACUGCCUCUCUGGAUUCCUCGUCACUCAGCAGGGCACCUCUGAGAGAAAUGCC	2.25
UACGUAGGUGGUUUUCCCCUGAUAGUGCUAAGGGGGCCUGGAAGUUUGGACUGGGCAGAGCUCAACACAGCGCGGCAAAGUGGCUGUGGCUAGACUGCCUCUCUGGAUUCCCCGUCACUCAGCAGGGCAUCUCUGAGAGAAAUGCC	1.65
UACGUAGGUGGUUUUCCCCUGAUAGUGCUAAGGGGGCCUGGAAGUUUGGACUGGGCAGAGCUCAACACAGCGCGGCAAAGUGGCUGUGGCUAGACUGCCUCUCUGGAUUCCACGUCACUCAGCAGGGCAUCUCUGAGAGAAAUGCC	1.41
UACGUAGGUGGUUUUCCCCUGAUAGUGCUAAGGGGGCCUGGAAGUUUGGACUGGGCAGAGCUCAACACAGCGCGGCAAAGUGGCUGUGGCUAGACUGCCUCUCUGGACUCCUCGUCACUCAGCAGGGCAUCUCUGAGAGAAAUGCC	0.95
UACGUAGGUGGUUUUCCCCUGAUAGUGCUAAGGGGGCCUGGAAGUUUGGACUGGGCAGAGCUCAACACAGCGCGGCAAAGUGGCUGUGGCUAGACUGCCUCUCUGGAUUCCUCGUCACUCAGCAGGGCAUCUCGGAGAGAAAUGCC	1.7
UACGUAGGUGGUUUUCCCCUGAUAGUGCUAAGGGGGCCUGGAAGUUUGGACUGGGCAGAGCUCAACACAGCGGGGCAAAGUGGCUGUGGCUAGACUGCCUCUCUGGAUUCCUCGUCACUCAGCAGGGCAUCCCUGAGAGAAAUGCC	1.58
UACGUAGGUGGUUUUCCCCUGAUAGUGCUAAGGGGGCCUGGAAGUUUGGACUGGGCAGAGCUCAACACAGCGGGGCAAAGUGGCUGAGGCUAGACUGCCUCUCUGGAUUCCUCGUCACUCAGCAGGGCAUCUCUGAGAGAAAUGCC	0.03
UACGUAGGUGGUUUUCCCCUGAUAGUGCUAAGGGGGCCUGGAAGUUUGGACUGGGCAGAGCUCAACACAGCGGGGCAAAGUGGCUGUGGCUAGACUGCCUCUCUGGAUUCCUCGUCACUCAGCUGGGCAUCUCUGAGAGAAAUGCC	1.36
UACGUAGGUGGUUUUCCCCUGAUAGUGCUAAGGGGGCCUGGAAGUUUGGACUGGGCAGAGCUCAACACAGCGGGGCAAAGUGGCUGUGGCUAGACUGCCUCUCUGGAUUCCUCGUCACUCAGCGGGGCAUCUCUGAGAGAAAUGCC	0.78

Variant	self-cleavage
UACGUAGGUGGUUUUCCCCUGAUAGUGCUAAGGGGGCCUGGAAGUUUGGACUGGGCAGAGCUCAACACAGCGGGGCGAAGUGGCUGUGGCUAGACUGCCUCUCUGGAUUCCUCGUCACUCAGCAGGGCAUCUCUGAGAGAAAUGCC	0.98
UACGUAGGUGGUUUUCCCCUGAUAGUGCUAAGGGGGCCUGGAAGUUUGGACUGGGCAGAGCUCAACACAGCGGGGCAAAGUGGUUGUGGCUAGACUGCCUCUCUGGAUUCCUCGUCACUCAGCAGGGCAUCUCUGAGAGAAAUGCC	0.17
UACGUAGGUGGUUUUCCCCUGAUAGUGCUAAGGGGGCCUGGAAGUUUGGACUGGGCAGAGCUCAACACAGCGGGGCAAAGUGGCUGUGGCUAGACUGCCUCUCUGGAUUCCUCGUCACUCAGCAGGGCAUCUCUGAGAGAAGUGCC	1.2
UACGUAGGUGGUUUUCCCCUGAUAGUGCUAAGGGGGCCUGGAAGUUUGGACUGGGCAGAGCUCAACACAGCGUAGCAAGGUGGCUGUGGCUAGACUGCCUCUCUGGAUUCCUCGUCACUCAGCAGGGCAUCUCUGAGAGAAAUGCC	0.8
UACGUAGGUGGUUUUCCCCUGAUAGUGCUAAGGGGGCCUGGAAGUUUGGACUGGGCAGAGCUCAACACAGCGUAGCAAUGUGGCUGUGGCUAGACUGCCUCUCUGGAUUCCUCGUCACUCAGCAGGGCAUCUCUGAGAGAAAUGCC	2.06
UACGUAGGUGGUUUUCCCCUGAUAGUGCUAAGGGGGCCUGGAAGUUUGGACUGGGCAGAGCUCAACACAGCGUAGCAAAGUGGCUGUGGCUAGUCUGCCUCUCUGGAUUCCUCGUCACUCAGCAGGGCAUCUCUGAGAGAAAUGCC	0.17
UACGUAGGUGGUUUUCCCCUGAUAGUGCUAAGGGGGCCUGGAAGUUUGGACUGGGCAGAGCUCAACACAGCGCGGCAAAGUGGCUGUGGCUAGACUGCCUCUCUGGAUUCCUCGUCACACAGCAGGGCAUCUCUGAGAGAAAUGCC	1.64
UACGUAGGUGGUUUUCCCCUGAUAGUGCUAAGGGGGCCUGGAAGUUUGGACUGGGCAGAGCUCAACACAGCGCGGCAAAGUGGCUGUGGCUAGACUGCCUCUCUGGAUUCCUCGUCACCCAGCAGGGCAUCUCUGAGAGAAAUGCC	2.11
UACGUAGGUGGUUUUCCCCUGAUAGUGCUAAGGGGGCCUGGAAGUUUGGACUGGGCAGAGCUCAACACAGCGGGGCAAAGUGGCGGUGGCUAGACUGCCUCUCUGGAUUCCUCGUCACUCAGCAGGGCAUCUCUGAGAGAAAUGCC	0.06
UACGUAGGUGGUUUUCCCCUGAUAGUGCUAAGGGGGCCUGGAAGUUUGGACUGGGCAGAGCUCAACACAGCGUAGCAAAGUGGCUGUGGCUAGACUGCCUCUCUGGAUUCCUCGUCACUCAGCAGGGCGUCUCUGAGAGAAAUGCC	1.53
UACGUAGGUGGUUUUCCCCUGAUAGUGCUAAGGGGGCCUGGAAGUUUGGACUGGGCAGAGCUCAACACAGCGUAGCAAAGUGGCUGUGGCUAGACUGCCUCUCUGGAUUCCUCGUCACUCAGCAGGGCUUCUCUGAGAGAAAUGCC	1.09
UACGUAGGUGGUUUUCCCCUGAUAGUGCUAAGGGGGCCUGGAAGUUUGGACUGGGCAGAGCUCAACACAGCGUAGCAAAGUGGCUGUGGCUAGACUGCCUCUCUGGAUUCCUCGUCACUCGGCAGGGCAUCUCUGAGAGAAAUGCC	1.43
UACGUAGGUGGUUUUCCCCUGAUAGUGCUAAGGGGGCCUGGAAGUUUGGACUGGGCAGAGCUCAACACAGCGCGGCAAAGUGGCUGUGGCUAGACGGCCUCUCUGGAUUCCUCGUCACUCAGCAGGGCAUCUCUGAGAGAAAUGCC	0.19
UACGUAGGUGGUUUUCCCCUGAUAGUGCUAAGGGGGCCUGGAAGUUUGGACUGGGCAGAGCUCAACACAGCGUAGCAAAGUGGCUGUGGCUAGACUGCCUCUCUGGAUUCCUCGUCACUCAGCAGGGCAUCUCUGAGGGAAAUGCC	1.26
UACGUAGGUGGUUUUCCCCUGAUAGUGCUAAGGGGGCCUGGAAGUUUGGACUGGGCAGAGCUCAACACAGCGCGGCAAAGUGGCUGUGGCUAGACUGCCUCUCUGGAUUCCUCGUCACUCAGCAGGGCAUCACUGAGAGAAAUGCC	1.25
UACGUAGGUGGUUUUCCCCUGAUAGUGCUAAGGGGGCCUGGAAGUUUGGACUGGGCAGAGCUCAACACAGCGCGGCAAAGUGGCUGUGGCUAGACUGCCUCUCUGGAUUCCUCGUCACUCAGCAGGGCAUCCCUGAGAGAAAUGCC	2.09
UACGUAGGUGGUUUUCCCCUGAUAGUGCUAAGGGGGCCUGGAAGUUUGGACUGGGCAGAGCUCAACACAGCGGGGCAAAGUGGCUGUGGCUAGACUGCCUCUCUGGAUUCCUCGUCACUCAGCAGGGCAUCUCUGUGAGAAAUGCC	0.81
UACGUAGGUGGUUUUCCCCUGAUAGUGCUAAGGGGGCCUGGAAGUUUGGACUGGGCAGAGCUCAACACAGCGUAGCAAAGUGGCUGUGGCUAGACUGCCUCUCUGGAUUCCUCGUCACUCAGCCGGGCAUCUCUGAGAGAAAUGCC	1.58
UACGUAGGUGGUUUUCCCCUGAUAGUGCUAAGGGGGCCUGGAAGUUUGGACUGGGCAGAGCUCAACACAGCGUAGCAAAGUGGCUGUGGCUAGACUGCCUCUCUGGAUUCCUCGUCACUCAGCGGGGCAUCUCUGAGAGAAAUGCC	0.51
